From patent publication US20250066503A1, “CELL INJURY INDUCING THERAPEUTIC DRUG FOR USE IN CANCER THERAPY” (CHUGAI SEIYAKU KABUSHIKI KAISHA, priority 2016, published 2025)
Residue numbers refer to the chain shown, from its start.

B1: TR01H061-E22Hh/none-Hi-Kn010G3/L0000-k0 (antibody, V domains shown)
VH: QVQLVESGGGLVQPGRSLRLSCAASGFTFSNAWMHWVRQAPGKGLEWVAQIKDKSQNYATYYAESVKGRFTISRADSKNSIYLQMNSLKTEDTAVYYCRYVHYAASYGVDIWGQGTTVTVSS
VL: DIVMTQSPLSLPVTPGEPASISCRSSQSLVHSNRNTYLHWYQQKPGQAPRLLIYKVSNRFSGVPDRFSGSGSGTDFTLKISRVEAEDVGVYYCGQGTQVPYTFGQGTKLEIKR
notes: one-arm
B2: TR01H098-E22Hh/none-Hi-Kn010G3/L0011-k0 (antibody, V domains shown)
VH: B1 VH with T60P, A75D, I81L, S106G, I111A
VL: B1 VL with S28P
notes: one-arm
B3: TR01H072-E22Hh/none-Hi-Kn010G3/L0000-k0 (antibody, V domains shown)
VH: B1 VH
VL: B1 VL
notes: one-arm
B4: TR01H073-E22Hh/none-Hi-Kn010G3/L0000-k0 (antibody, V domains shown)
VH: B1 VH with A75D, I81L
VL: B1 VL
notes: one-arm
B5: TR01H081-E22Hh/none-Hi-Kn010G3/L0201-k0 (antibody, V domains shown)
VH: B1 VH with S106G
VL: B1 VL with S28P, L29P
notes: one-arm
B6: TR01H082-E22Hh/none-Hi-Kn010G3/L0201-k0 (antibody, V domains shown)
VH: B1 VH with A75D, I81L, S106G, I111A
VL: B1 VL with S28P, L29P
notes: one-arm
B7: TR01H083-E22Hh/none-Hi-Kn010G3/L0011-k0 (antibody, V domains shown)
VH: B1 VH with Q56N, S106G
VL: B1 VL with S28P
notes: one-arm
B8: TR01H081-E22Hh/none-Hi-Kn010G3/L0011-k0 (antibody, V domains shown)
VH: B1 VH with S106G
VL: B1 VL with S28P
notes: one-arm
B9: TR01H095-E22Hh/none-Hi-Kn010G3/L0011-k0 (antibody, V domains shown)
VH: B1 VH with T60F, A75D, I81L, S106G, I111A
VL: B1 VL with S28P
notes: one-arm
B10: TR01H084-E22Hh/none-Hi-Kn010G3/L0201-k0 (antibody, V domains shown)
VH: B1 VH with L11V, R16G, S106G
VL: B1 VL with S28P, L29P
notes: one-arm
B11: TR01H082-E22Hh/none-Hi-Kn010G3/L0011-k0 (antibody, V domains shown)
VH: B1 VH with A75D, I81L, S106G, I111A
VL: B1 VL with S28P
notes: one-arm
B12: TR01H074-E22Hh/none-Hi-Kn010G3/L0000-k0 (antibody, V domains shown)
VH: B1 VH with L11V, R16G
VL: B1 VL
notes: one-arm
B13: TR01H083-E22Hh/none-Hi-Kn010G3/L0222-k0 (antibody, V domains shown)
VH: B1 VH with Q56N, S106G
VL: B1 VL with L29P, L38I, H39Q, G94Y
notes: one-arm
B14: TR01H070-E22Hh/none-Hi-Kn010G3/L0000-k0 (antibody, V domains shown)
VH: B1 VH with L11V, R16G, A75D, I81L, I111Y
VL: B1 VL
notes: one-arm
B15: TR01H082-E22Hh/none-Hi-Kn010G3/L0222-k0 (antibody, V domains shown)
VH: B1 VH with A75D, I81L, S106G, I111A
VL: B1 VL with L29P, L38I, H39Q, G94Y
notes: one-arm
B16: TR01H082-E22Hh/none-Hi-Kn010G3/L0000-k0 (antibody, V domains shown)
VH: B1 VH with A75D, I81L, S106G, I111A
VL: B1 VL
notes: one-arm
B17: TR01H092-E22Hh/none-Hi-Kn010G3/L0011-k0 (antibody, V domains shown)
VH: B1 VH with K67A, A75D, I81L, S106G, I111A
VL: B1 VL with S28P
notes: one-arm
B18: TR01H082-E22Hh/none-Hi-Kn010G3/L0203-k0 (antibody, V domains shown)
VH: B1 VH with A75D, I81L, S106G, I111A
VL: B1 VL with L29P, L38I
notes: one-arm
B19: TR01H094-E22Hh/none-Hi-Kn010G3/L0011-k0 (antibody, V domains shown)
VH: B1 VH with K67S, A75D, I81L, S106G, I111A
VL: B1 VL with S28P
notes: one-arm
B20: TR01H068-E22Hh/none-Hi-Kn010G3/L0000-k0 (antibody, V domains shown)
VH: B1 VH with L11V, R16G, A75D, I81L, I111A
VL: B1 VL
notes: one-arm
B21: TR01H093-E22Hh/none-Hi-Kn010G3/L0011-k0 (antibody, V domains shown)
VH: B1 VH with K67Q, A75D, I81L, S106G, I111A
VL: B1 VL with S28P
notes: one-arm
B22: TR01H064-E22Hh/none-Hi-Kn010G3/L0000-k0 (antibody, V domains shown)
VH: B1 VH with A23S, I111A
VL: B1 VL
notes: one-arm
B23: TR01H091-E22Hh/none-Hi-Kn010G3/L0011-k0 (antibody, V domains shown)
VH: B1 VH with R19K, A75D, I81L, S106G, I111A
VL: B1 VL with S28P
notes: one-arm
B24: TR01H084-E22Hh/none-Hi-Kn010G3/L0000-k0 (antibody, V domains shown)
VH: B1 VH with L11V, R16G, S106G
VL: B1 VL
notes: one-arm
B25: TR01H067-E22Hh/none-Hi-Kn010G3/L0212-k0 (antibody, V domains shown)
VH: B1 VH with A75D, I81L, I111A
VL: B1 VL with S25P, L29P, G94Y
notes: one-arm
B26: TR01H066-E22Hh/none-Hi-Kn010G3/L0000-k0 (antibody, V domains shown)
VH: B1 VH with I81L, I111A
VL: B1 VL
notes: one-arm
B27: TR01H081-E22Hh/none-Hi-Kn010G3/L0000-k0 (antibody, V domains shown)
VH: B1 VH with S106G
VL: B1 VL
notes: one-arm
B28: TR01H063-E22Hh/none-Hi-Kn010G3/L0000-k0 (antibody, V domains shown)
VH: B1 VH with L11V, R16G, I111A
VL: B1 VL
notes: one-arm
B29: TR01H091-E2702GsKsc/none-Hi-E2704sE/L0011-k0 (antibody, V domains shown)
VH: B1 VH with R19K, A75D, I81L, S106G, I111A
VL: B1 VL with S28P
notes: one-arm
B30: TR01H082-E22Hh/none-Hi-Kn010G3/L0212-k0 (antibody, V domains shown)
VH: B1 VH with A75D, I81L, S106G, I111A
VL: B1 VL with S25P, L29P, G94Y
notes: one-arm
B31: TR01H083-E22Hh/none-Hi-Kn010G3/L0212-k0 (antibody, V domains shown)
VH: B1 VH with Q56N, S106G
VL: B1 VL with S25P, L29P, G94Y
notes: one-arm
B32: TR01H061-E22Hh/none-Hi-Kn010G3/L0222-k0 (antibody, V domains shown)
VH: B1 VH
VL: B1 VL with L29P, L38I, H39Q, G94Y
notes: one-arm
B33: TR01H076-E22Hh/none-Hi-Kn010G3/L0000-k0 (antibody, V domains shown)
VH: B1 VH with L11V, R16G, I111Y
VL: B1 VL
notes: one-arm
B34: TR01H096-E22Hh/none-Hi-Kn010G3/L0011-k0 (antibody, V domains shown)
VH: B1 VH with T60G, A75D, I81L, S106G, I111A
VL: B1 VL with S28P
notes: one-arm
B35: TR01H097-E22Hh/none-Hi-Kn010G3/L0011-k0 (antibody, V domains shown)
VH: B1 VH with T60L, A75D, I81L, S106G, I111A
VL: B1 VL with S28P
notes: one-arm
B36: TR01H069-E22Hh/none-Hi-Kn010G3/L0000-k0 (antibody, V domains shown)
VH: B1 VH with L11V, R16G, A75D, I81L
VL: B1 VL
notes: one-arm
B37: TR01H067-E22Hh/none-Hi-Kn010G3/L0000-k0 (antibody, V domains shown)
VH: B1 VH with A75D, I81L, I111A
VL: B1 VL
notes: one-arm
B38: TR01H075-E22Hh/none-Hi-Kn010G3/L0000-k0 (antibody, V domains shown)
VH: B1 VH with A75D, I81L, I111Y
VL: B1 VL
notes: one-arm
B39: TR01H084-E22Hh/none-Hi-Kn010G3/L0011-k0 (antibody, V domains shown)
VH: B1 VH with L11V, R16G, S106G
VL: B1 VL with S28P
notes: one-arm
B40: TR01H071-E22Hh/none-Hi-Kn010G3/L0000-k0 (antibody, V domains shown)
VH: B1 VH with Q56N
VL: B1 VL
notes: one-arm
B41: TR01H067-E22Hh/none-Hi-Kn010G3/L0203-k0 (antibody, V domains shown)
VH: B1 VH with A75D, I81L, I111A
VL: B1 VL with L29P, L38I
notes: one-arm
B42: TR01H071-E22Hh/none-Hi-Kn010G3/L0222-k0 (antibody, V domains shown)
VH: B1 VH with Q56N
VL: B1 VL with L29P, L38I, H39Q, G94Y
notes: one-arm
B43: TR01H067-E22Hh/none-Hi-Kn010G3/L0222-k0 (antibody, V domains shown)
VH: B1 VH with A75D, I81L, I111A
VL: B1 VL with L29P, L38I, H39Q, G94Y
notes: one-arm
B44: TR01H065-E22Hh/none-Hi-Kn010G3/L0000-k0 (antibody, V domains shown)
VH: B1 VH with A75D, I111A
VL: B1 VL
notes: one-arm
B45: TR01H067-E22Hh/none-Hi-Kn010G3/L0201-k0 (antibody, V domains shown)
VH: B1 VH with A75D, I81L, I111A
VL: B1 VL with S28P, L29P
notes: one-arm
B46: TR01H067-E22Hh/none-Hi-Kn010G3/L0011-k0 (antibody, V domains shown)
VH: B1 VH with A75D, I81L, I111A
VL: B1 VL with S28P
notes: one-arm
B47: TR01H090-E22Hh/none-Hi-Kn010G3/L0011-k0 (antibody, V domains shown)
VH: B1 VH with R16G, A75D, I81L, S106G, I111A
VL: B1 VL with S28P
notes: one-arm
B48: TR01H083-E22Hh/none-Hi-Kn010G3/L0201-k0 (antibody, V domains shown)
VH: B1 VH with Q56N, S106G
VL: B1 VL with S28P, L29P
notes: one-arm
B49: TR01H083-E22Hh/none-Hi-Kn010G3/L0000-k0 (antibody, V domains shown)
VH: B1 VH with Q56N, S106G
VL: B1 VL
notes: one-arm

Each binder was assayed against T1, soluble human CD3 epsilon chain (human, UniProt P07766 23-126) (assay: SPR).
T1 construct: also called CD3ε
T1 sequence (P07766 23-126 limits assumed): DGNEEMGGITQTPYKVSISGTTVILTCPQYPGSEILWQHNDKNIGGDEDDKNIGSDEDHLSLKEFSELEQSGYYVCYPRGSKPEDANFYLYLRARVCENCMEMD

Binder | Kd
B1 | 17.1 nM
B2 | 91.4 nM
B3 | 20.3 nM
B4 | 59.7 nM
B5 | 9.46 nM
B6 | 44.9 nM
B7 | 6.7 nM
B8 | 13.5 nM
B9 | 90.9 nM
B10 | 16.5 nM
B11 | 59.5 nM
B12 | 29.1 nM
B13 | 9.42 nM
B14 | 120 nM
B15 | 101 nM
B16 | 73.7 nM
B17 | 72.1 nM
B18 | 40.7 nM
B19 | 70 nM
B20 | 101 nM
B21 | 68 nM
B22 | 30.7 nM
B23 | 66.7 nM
B24 | 21.3 nM
B25 | 5.88 nM

Binder | Kd
B26 | 60.2 nM
B27 | 15.6 nM
B28 | 43.5 nM
B29 | 13.9 nM
B30 | 4.75 nM
B31 | 0.0586 nM
B32 | 18.8 nM
B33 | 47.8 nM
B34 | 74.7 nM
B35 | 87.6 nM
B36 | 71.1 nM
B37 | 71.5 nM
B38 | 98.8 nM
B39 | 19.8 nM
B40 | 8.85 nM
B41 | 47.9 nM
B42 | 10.4 nM
B43 | 76.3 nM
B44 | 43.1 nM
B45 | 59.3 nM
B46 | 71.8 nM
B47 | 69.5 nM
B48 | 4.42 nM
B49 | 6.83 nM
